Laboratory results taken from patent US20200164038A1, “MODIFIED NUCLEOSIDE, NUCLEOTIDE, AND NUCLEIC ACID COMPOSITIONS” (ModernaTX, Inc., priority 2011, published 2020).
Like-named read-outs stand apart in the source and are kept apart here.

Assays:
[1] = LNP in vivo study IV, IM, SC, serum G-CSF or EPO by ELISA; details: rats, 0.05 mg/kg
Description: (§1) Formulations, listed in Table 31, were characterized by particle size, zeta potential, and encapsulation.
LNP formulations, shown in Table 31 (above), were administered to rats (n=5) intravenously (IV), intramuscularly (IM) or subcutaneously (SC) at a single modified mRNA dose of 0.05 mg/kg. A control group of rats (n=4) was untreated. The rats were bled at 2 hours, 8 hours, 24 hours, 48 hours and 96 hours and after they were administered with G-CSF or EPO modified mRNA formulations to determine protein expression using ELISA. The rats administered EPO modified mRNA intravenously were also bled at 7 days.

[2] = Non-human primate in vivo study for G-CSF and EPO, serum protein by ELISA; design: species or system cynomolgus monkey
Description: as §1
(§2) LNP formulations, shown in Table 31 (above), were administered to non-human primates (NHP) (cynomolgus monkey) (n=2) as intravenous injection (IV). The NHP were administered a single modified mRNA IV dose of 0.5 mg/kg, 0.05 mg/kg or 0.005 mg/kg of G-CSF or EPO in a dose volume of 0.5 mL/kg. The NHPs were bled before dosing with the modified mRNA LNP formulations to determine protein expression in the serum and a baseline complete blood count. After administration with the G-CSF modified mRNA formulation the NHP were bled at 8, 24, 48 and 72 hours to determined protein expression. After administration with the EPO modified mRNA formulation the NHP were bled at 8, 24, 48, 72 hours and 7 days to determined protein expression.
(§3) Samples collected from the NHPs after they were administered with G-CSF or EPO modified mRNA formulations were analyzed by ELISA to determine protein expression. Neutrophil and reticulocyte count was also determined pre-dose, 24 hours, 3 days, 7 days, 14 days and 18 days after administration of the modified G-CSF or EPO formulation.

[3] = LNP formulations in mice, serum G-CSF or EPO by ELISA; assay type: in vivo; details: mice IV; for time out to which protein expression was detectable: LNP
Description: as §1
LNP formulations, shown in Table 31 (above), were administered to mice (n=4) intravenously (IV) at a single modified mRNA dose 0.05 mg/kg or 0.005 mg/kg. There was also 3 control groups of mice (n=4) that were untreated. The mice were bled at 2 hours, 8 hours, 24 hours, 48 hours and 72 hours after they were administered with G-CSF or EPO modified mRNA formulations to determine the protein expression. Protein expression of G-CSF and EPO were determined using ELISA.

neutrophil count = assay: Intravenous administration of lipoplexed G-CSF mRNA, neutrophil count; assay type: in vivo; details: mice IV, 50 ug RNA in 10% lipoplex at days 0, 2 and 4; day 5
Description: Neutrophils were measured at days 1, 5 and 8. Controls included non-specific mammalian RNA or the formulation buffer alone (F.Buffer). The mice were bled at days 1, 5 and 8 to determine the effect of mRNA-encoded human G-CSF to increase neutrophil count. The dosing regimen is shown in Table 64 as are the resulting neutrophil counts (thousands/uL; K/uL).

[4] = system: Neutrophil and reticulocyte count; assay: Non-human primate hematology: neutrophil and reticulocyte count, hemoglobin, hematocrit, red blood cells; assay type: in vivo, cynomolgus monkey; details: for Female NHP Neutrophils: Table 39
Description: as §2, §3

[5] = for Serum Concentration 8-12 hours after administration: G-CSF; for G-CSF Protein Expression, Conc: mice IV, serum 8 hrs
[6] = Female NHP, 0.5 mg/kg, 24 hours

B1: G-CSF: human G-CSF mRNA, SEQ ID NO: 6, polyA about 160 nt, Cap1, fully modified with 5-methylcytosine and pseudouridine (nucleic acid, listed as Homo sapiens)
chain: GGGAAAUAAGAGAGAAAAGAAGAGUAAGAAGAAAUAUAAGAGCCACCAUGGCCGGUCCCGCGACCCAAAGCCCCAUGAAACUUAUGGCCCUGCAGUUGCUGCUUUGGCACUCGGCCCUCUGGACAGUCCAAGAAGCGACUCCUCUCGGACCUGCCUCAUCGUUGCCGCAGUCAUUCCUUUUGAAGUGUCUGGAGCAGGUGCGAAAGAUUCAGGGCGAUGGAGCCGCACUCCAAGAGAAGCUCUGCGCGACAUACAAACUUUGCCAUCCCGAGGAGCUCGUACUGCUCGGGCACAGCUUGGGGAUUCCCUGGGCUCCUCUCUCGUCCUGUCCGUCGCAGGCUUUGCAGUUGGCAGGGUGCCUUUCCCAGCUCCACUCCGGUUUGUUCUUGUAUCAGGGACUGCUGCAAGCCCUUGAGGGAAUCUCGCCAGAAUUGGGCCCGACGCUGGACACGUUGCAGCUCGACGUGGCGGAUUUCGCAACAACCAUCUGGCAGCAGAUGGAGGAACUGGGGAUGGCACCCGCGCUGCAGCCCACGCAGGGGGCAAUGCCGGCCUUUGCGUCCGCGUUUCAGCGCAGGGCGGGUGGAGUCCUCGUAGCGAGCCACCUUCAAUCAUUUUUGGAAGUCUCGUACCGGGUGCUGAGACAUCUUGCGCAGCCGUGAAGCGCUGCCUUCUGCGGGGCUUGCCUUCUGGCCAUGCCCUUCUUCUCUCCCUUGCACCUGUACCUCUUGGUCUUUGAAUAAAGCCUGAGUAGGAAG
modifications: Cap1; polyA; 5-methylcytosine, pseudouridine
[1]; intravenous
  time out to which protein expression was detectable: 7 days
[1]; subcutaneous and intramuscular
  time out to which protein expression was detectable: at least 8 hours
[2]; 0.005 mg/kg IV LNP, 24 hours
  Male NHP Serum G-CSF Concentration: <39 pg/mL
[2]; 0.005 mg/kg IV LNP, 48 hours
  Male NHP Serum G-CSF Concentration: <39 pg/mL
[2]; 0.005 mg/kg IV LNP, 72 hours
  Male NHP Serum G-CSF Concentration: <39 pg/mL
[2]; 0.005 mg/kg IV LNP, Pre-bleed
  Male NHP Serum G-CSF Concentration: <39 pg/mL
[2]; 0.05 mg/kg IV LNP, 8 hours
  Female NHP Serum G-CSF Concentration: 3,289 pg/ml
  Male NHP Serum G-CSF Concentration: 1,722 pg/ml
[2]; 0.05 mg/kg IV LNP, 24 hours
  Female NHP Serum G-CSF Concentration: 722 pg/mL
  Male NHP Serum G-CSF Concentration: 307 pg/mL
[2]; 0.05 mg/kg IV LNP, 48 hours
  Male NHP Serum G-CSF Concentration: <39 pg/mL
[2]; 0.05 mg/kg IV LNP, 72 hours
  Male NHP Serum G-CSF Concentration: <39 pg/mL
[2]; 0.05 mg/kg IV LNP, Pre-bleed
  Male NHP Serum G-CSF Concentration: <39 pg/mL
[2]; 0.5 mg/kg IV LNP, Pre-bleed, limit of detection 39 pg/ml
  Male NHP Serum G-CSF Concentration: <39 pg/mL
[2]; NHP IV, G-CSF LNP
  time beyond which protein expression was not detected: ≤ 72 h
[3]; LNP NPA-030-2, 0.005 mg/kg, 2 hours
  G-CSF Serum Concentration: 3,447.8 pg/ml
[3]; LNP NPA-030-2, 0.005 mg/kg, 8 hours
  G-CSF Serum Concentration: 11,454.0 pg/ml
[3]; LNP NPA-030-2, 0.005 mg/kg, 24 hours
  G-CSF Serum Concentration: 4,960.2 pg/ml
[3]; LNP NPA-030-2, 0.005 mg/kg, 48 hours
  G-CSF Serum Concentration: 686.4 pg/mL
[3]; LNP NPA-030-2, 0.05 mg/kg, 2 hours
  G-CSF Serum Concentration: 20,951.4 pg/ml
[3]; LNP NPA-030-2, 0.05 mg/kg, 8 hours
  G-CSF Serum Concentration: 20,012.8 pg/ml
[3]; LNP NPA-030-2, 0.05 mg/kg, 24 hours
  G-CSF Serum Concentration: 19,356.2 pg/ml
[3]; LNP NPA-030-2, 0.05 mg/kg, 48 hours
  G-CSF Serum Concentration: 1,963.0 pg/ml
[3]; LNP NPA-030-2, 0.05 mg/kg, 72 hours
  G-CSF Serum Concentration: 47.3 pg/mL
[3]; 0.005 mg/kg
  time out to which protein expression was detectable: ≥ 48 h
[3]; 0.05 mg/kg
  time out to which protein expression was detectable: ≥ 72 h
Neutrophil count
  increase in neutrophil count above control: four to five fold increase
[4]; Female NHP, 0.005 mg/kg, 14/18 days
  Hematocrit (HCT): 0.42 L/L
[4]; Female NHP, 0.005 mg/kg, 24 hours
  Hematocrit (HCT): 0.42 L/L
[4]; Female NHP, 0.005 mg/kg, 3 days
  Hematocrit (HCT): 0.41 L/L
[4]; Female NHP, 0.005 mg/kg, 7 days
  Hematocrit (HCT): 0.42 L/L
[4]; Female NHP, 0.005 mg/kg, Pre-dose
  Hematocrit (HCT): 0.42 L/L
[4]; Female NHP, 0.05 mg/kg, 14/18 days
  Hematocrit (HCT): 0.4 L/L
[4]; Female NHP, 0.05 mg/kg, 24 hours
  Hematocrit (HCT): 0.4 L/L
[4]; Female NHP, 0.05 mg/kg, 3 days
  Hematocrit (HCT): 0.39 L/L
[4]; Female NHP, 0.05 mg/kg, 7 days
  Hematocrit (HCT): 0.4 L/L
[4]; Female NHP, 0.05 mg/kg, Pre-dose
  Hematocrit (HCT): 0.44 L/L
[4]; Female NHP, 0.5 mg/kg, 14/18 days
  Hematocrit (HCT): 0.37 L/L
[4]; [6]
  Hematocrit (HCT): 0.38 L/L
  Red Blood Cells (RBC): 4.95 10^12/L
[4]; Female NHP, 0.5 mg/kg, 3 days
  Hematocrit (HCT): 0.38 L/L
[4]; Female NHP, 0.5 mg/kg, 7 days
  Hematocrit (HCT): 0.38 L/L
[4]; Female NHP, 0.5 mg/kg, Pre-dose
  Hematocrit (HCT): 0.43 L/L
[4]; Male NHP, 0.005 mg/kg, 14/18 days
  Hematocrit (HCT): 0.41 L/L
[4]; Male NHP, 0.005 mg/kg, 24 hours
  Hematocrit (HCT): 0.4 L/L
[4]; Male NHP, 0.005 mg/kg, 3 days
  Hematocrit (HCT): 0.4 L/L
[4]; Male NHP, 0.005 mg/kg, 7 days
  Hematocrit (HCT): 0.39 L/L
[4]; Male NHP, 0.005 mg/kg, Pre-dose
  Hematocrit (HCT): 0.42 L/L
[4]; Male NHP, 0.05 mg/kg, 14/18 days
  Hematocrit (HCT): 0.44 L/L
[4]; Male NHP, 0.05 mg/kg, 24 hours
  Hematocrit (HCT): 0.39 L/L
[4]; Male NHP, 0.05 mg/kg, 3 days
  Hematocrit (HCT): 0.41 L/L
[4]; Male NHP, 0.05 mg/kg, 7 days
  Hematocrit (HCT): 0.42 L/L
[4]; Male NHP, 0.05 mg/kg, Pre-dose
  Hematocrit (HCT): 0.44 L/L
[4]; Male NHP, 0.5 mg/kg, 14/18 days
  Hematocrit (HCT): 0.34 L/L
[4]; Male NHP, 0.5 mg/kg, 24 hours
  Hematocrit (HCT): 0.37 L/L
[4]; Male NHP, 0.5 mg/kg, 3 days
  Hematocrit (HCT): 0.39 L/L
  Red Blood Cells (RBC): 1.91 10^12/L
[4]; Male NHP, 0.5 mg/kg, 7 days
  Hematocrit (HCT): 0.39 L/L
[4]; Male NHP, 0.5 mg/kg, Pre-dose
  Hematocrit (HCT): 0.46 L/L
[4]; NHP IV LNP, all G-CSF groups
  neutrophils relative to pre-dose levels: increase in neutrophils
[4]; 0.005 mg/kg IV LNP, 14/18 days
  Female NHP Neutrophils: 0.057 10^12/L
[4]; 0.005 mg/kg IV LNP, 24 hours
  Female NHP Neutrophils: 0.07 10^12/L
[4]; 0.005 mg/kg IV LNP, 3 days
  Female NHP Neutrophils: 0 .054 10^12/L
[4]; 0.005 mg/kg IV LNP, 7 days
  Female NHP Neutrophils: 0.066 10^12/L
[4]; 0.005 mg/kg IV LNP, Pre-dose
  Female NHP Neutrophils: 0.06 10^12/L
[4]; 0.05 mg/kg IV LNP, 14/18 days
  Female NHP Neutrophils: 0.06 10^12/L
[4]; 0.05 mg/kg IV LNP, 24 hours
  Female NHP Neutrophils: 0.046 10^12/L
[4]; 0.05 mg/kg IV LNP, 3 days
  Female NHP Neutrophils: 0.061 10^12/L
[4]; 0.05 mg/kg IV LNP, 7 days
  Female NHP Neutrophils: 0.094 10^12/L
[4]; 0.05 mg/kg IV LNP, Pre-dose
  Female NHP Neutrophils: 0.049 10^12/L
[4]; 0.5 mg/kg IV LNP, 14/18 days
  Female NHP Neutrophils: 0.071 10^12/L
[4]; 0.5 mg/kg IV LNP, 24 hours
  Female NHP Neutrophils: 0.046 10^12/L
[4]; 0.5 mg/kg IV LNP, 3 days
  Female NHP Neutrophils: 0.017 10^12/L
[4]; 0.5 mg/kg IV LNP, 7 days
  Female NHP Neutrophils: 0.021 10^12/L
[4]; 0.5 mg/kg IV LNP, Pre-dose
  Female NHP Neutrophils: 0.055 10^12/L
[5]; IM, 100 ug, saline
  Serum Concentration 8-12 hours after administration: ~20 to 80 pg/mL
[5]; IV (LNP), 1 ug
  Serum Concentration 8-12 hours after administration: ~20,000 pg/ml
[5]; IV (LNP), 10 ug
  Serum Concentration 8-12 hours after administration: ~1,000,000 pg/ml
[5]; IV (LNP), 100 ug
  Serum Concentration 8-12 hours after administration: ~5,000,000 pg/ml
[5]; IV (Lipoplex), 100 ug
  Serum Concentration 8-12 hours after administration: ~30 pg/mL
[5]; SC, 100 ug, saline
  Serum Concentration 8-12 hours after administration: ~10 to 40 pg/mL
[5]; LNP NPA-030-1, 10 ug
  G-CSF Protein Expression, Conc: ~1200 ng/mL
[5]; LNP NPA-030-1, 100 ug
  G-CSF Protein Expression, Conc: ~4700 ng/mL
